# From the supplement of paper PMC7125110
# ± gives the standard error. For some assays here: Fewer inactive variants are shown than the library holds.
# B1: glmS ribozyme (parent)
# chain: AUAAAAGCGCCAGAACUACAGAAAUGUAGUUGACGAGGAGGAGGUUUAUCGAAUUUUCGGCGGAUGCCUCCAAA
# Assays:
# Conditions in all cases: with glucosamine-6-phosphate
# [1] = variants of: B1; test: KM; higher = weaker cofactor use; RNA array
# In short: (§1)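 Glucosamine-6-phosphate, from 40 μM to 10 mM in HEPES/KCl/Mg(OAc)2 buffer, was flowed over sequenced MiSeq chips carrying barcoded ribozyme variants transcribed in situ by E. coli RNA polymerase. A hybridised Cy3 probe tracked the variants at 37 °C as tiles were imaged over ~14 h. kobs, kcat and KM were obtained by fitting normalised per-tile medians to exponential decays and then applying weighted Michaelis–Menten fits across concentrations.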
# [2] = variants of: B1; test: kcat; higher = faster cleavage; RNA array
# In short: as §1
# [3] = variants of: B1; test: self-cleavage kobs at 2500 uM GlcN6P; higher = faster cleavage; RNA array
# In short: as §1
# [4] = variants of: B1; test: self-cleavage kobs at 10000 uM GlcN6P; higher = faster cleavage; RNA array
# In short: as §1
# [5] = variants of: B1; test: self-cleavage kobs at 160 uM GlcN6P; higher = faster cleavage; RNA array
# In short: as §1
# [6] = variants of: B1; test: self-cleavage kobs at 640 uM GlcN6P; higher = faster cleavage; RNA array
# In short: as §1
# [7] = variants of: B1; test: self-cleavage kobs at 40 uM GlcN6P; higher = faster cleavage; RNA array
# In short: as §1
Variant,KM [1],kcat [2],self-cleavage kobs at 2500 uM GlcN6P [3],self-cleavage kobs at 10000 uM GlcN6P [4],self-cleavage kobs at 160 uM GlcN6P [5],self-cleavage kobs at 640 uM GlcN6P [6],self-cleavage kobs at 40 uM GlcN6P [7]
C11U C50U,98.2 ± 43 µM,,,,,,
G66C C71A,,0.000163 ± 2.2e-05 s⁻¹,0.000143 ± 1.5e-05 s⁻¹,0.000132 ± 2.2e-05 s⁻¹,,,
A42C U56G,4130 ± 120 µM,,,,,,
U65G U69G,,6.55e-05 ± 6.1e-06 s⁻¹,6.29e-05 ± 1.2e-05 s⁻¹,6.56e-05 ± 1.1e-05 s⁻¹,4.06e-05 ± 1.8e-05 s⁻¹,3.94e-05 ± 1.3e-05 s⁻¹,
U65G U69A,1450 ± 480 µM,0.000187 ± 3.2e-05 s⁻¹,0.000116 ± 2.2e-05 s⁻¹,0.000174 ± 5.3e-05 s⁻¹,,5.5e-05 ± 1.2e-05 s⁻¹,
C67A U69G,,4.96e-05 ± 1.7e-05 s⁻¹,6.57e-05 ± 1.3e-05 s⁻¹,,,6.63e-05 ± 1.6e-05 s⁻¹,
A39G U55G,212 ± 100 µM,,0.00613 ± 0.0016 s⁻¹,0.0177 ± 0.0048 s⁻¹,0.00211 ± 0.0006 s⁻¹,0.00499 ± 0.00097 s⁻¹,0.0012 ± 0.00016 s⁻¹
G66A C68G,,6.98e-05 ± 9.4e-06 s⁻¹,4.73e-05 ± 1e-05 s⁻¹,7.85e-05 ± 7.5e-06 s⁻¹,3.51e-05 ± 1.2e-05 s⁻¹,5.08e-05 ± 7.5e-06 s⁻¹,
G66U C70U,1830 ± 590 µM,0.00205 ± 0.00047 s⁻¹,0.00124 ± 0.00016 s⁻¹,0.00175 ± 0.00019 s⁻¹,0.000141 ± 1.7e-05 s⁻¹,0.000507 ± 4.8e-05 s⁻¹,6.67e-05 ± 8e-06 s⁻¹
A12U U55G,104 ± 42 µM,,0.00928 ± 0.0023 s⁻¹,0.119 ± 0.048 s⁻¹,0.00618 ± 0.0009 s⁻¹,0.0105 ± 0.0021 s⁻¹,0.00298 ± 0.00031 s⁻¹
U2C A33G,,,< 1e-05 s⁻¹,< 1e-05 s⁻¹,< 1e-05 s⁻¹,,< 1e-05 s⁻¹
C67U C71U,,0.00245 ± 0.0012 s⁻¹,0.00121 ± 0.00026 s⁻¹,0.00213 ± 0.00029 s⁻¹,0.000128 ± 1.6e-05 s⁻¹,0.000403 ± 3.1e-05 s⁻¹,6.24e-05 ± 6.8e-06 s⁻¹
A6C A14U G41U C70U,,,,,,,< 1e-05 s⁻¹
A6C A42C,,,,< 1e-05 s⁻¹,< 1e-05 s⁻¹,< 1e-05 s⁻¹,< 1e-05 s⁻¹
A6C A42U,,,,< 1e-05 s⁻¹,< 1e-05 s⁻¹,< 1e-05 s⁻¹,< 1e-05 s⁻¹
G66U U69G,,3.26e-05 ± 1.2e-05 s⁻¹,4.9e-05 ± 2.2e-05 s⁻¹,,,5.52e-05 ± 2.5e-05 s⁻¹,
A39C C50U,1080 ± 200 µM,,,,,,
A6C A36U G37C G60U,,,,,,,< 1e-05 s⁻¹
A1C,,,0.0128 ± 0.0042 s⁻¹,0.0709 ± 0.033 s⁻¹,0.00363 ± 0.00095 s⁻¹,0.0192 ± 0.0042 s⁻¹,0.00111 ± 0.00028 s⁻¹
A1G,,,,0.0405 ± 0.014 s⁻¹,,,0.00124 ± 0.00034 s⁻¹

Variant,KM [1],kcat [2],self-cleavage kobs at 2500 uM GlcN6P [3],self-cleavage kobs at 10000 uM GlcN6P [4],self-cleavage kobs at 160 uM GlcN6P [5],self-cleavage kobs at 640 uM GlcN6P [6],self-cleavage kobs at 40 uM GlcN6P [7]
G13A C61G,127 ± 17 µM,,,,,,
C67G C70A,,< 1e-05 s⁻¹,,< 1e-05 s⁻¹,,< 1e-05 s⁻¹,< 1e-05 s⁻¹
C67G C71U,,2.93e-05 ± 3.2e-06 s⁻¹,3.07e-05 ± 8.1e-06 s⁻¹,2.63e-05 ± 6.7e-06 s⁻¹,,,
C67G U69G,,< 1e-05 s⁻¹,,< 1e-05 s⁻¹,< 1e-05 s⁻¹,,
C67G U69C,958 ± 170 µM,0.00123 ± 0.00012 s⁻¹,0.00077 ± 0.00014 s⁻¹,0.00127 ± 0.0002 s⁻¹,0.000179 ± 3.4e-05 s⁻¹,0.000506 ± 9.2e-05 s⁻¹,5.09e-05 ± 1.4e-05 s⁻¹
U65C C67G,,6.8e-05 ± 3.8e-06 s⁻¹,,6.72e-05 ± 8.1e-06 s⁻¹,,5.5e-05 ± 1.4e-05 s⁻¹,
A42G A53G,248 ± 95 µM,,0.0414 ± 0.018 s⁻¹,0.00932 ± 0.0024 s⁻¹,0.00422 ± 0.0013 s⁻¹,0.00893 ± 0.0025 s⁻¹,0.00144 ± 0.00031 s⁻¹
C67U U69G,,3.43e-05 ± 1.5e-05 s⁻¹,4.75e-05 ± 1.2e-05 s⁻¹,,4.85e-05 ± 1.1e-05 s⁻¹,,
C67U U69C,,0.000129 ± 6e-05 s⁻¹,4.99e-05 ± 2.3e-05 s⁻¹,0.000226 ± 3.7e-05 s⁻¹,4.3e-05 ± 2.1e-05 s⁻¹,0.000113 ± 2e-05 s⁻¹,
A6C A64U,,,,< 1e-05 s⁻¹,< 1e-05 s⁻¹,< 1e-05 s⁻¹,< 1e-05 s⁻¹
C68U C71G,,1.73e-05 ± 3.6e-06 s⁻¹,1.93e-05 ± 8.3e-06 s⁻¹,,,2.44e-05 ± 1e-05 s⁻¹,
G41C U69C,84.1 ± 23 µM,,,,,,
G66C C67G,,2.61e-05 ± 7.8e-06 s⁻¹,,,,2.84e-05 ± 1.3e-05 s⁻¹,
A42G U55C,895 ± 430 µM,,0.0354 ± 0.016 s⁻¹,0.0147 ± 0.0029 s⁻¹,0.00147 ± 0.00063 s⁻¹,0.0147 ± 0.0051 s⁻¹,0.000832 ± 0.00014 s⁻¹
U31G G51C,210 ± 61 µM,,,,,,
G40A G44C,2680 ± 1100 µM,,,,,,
U2A A3U G32A,,,0.0028 ± 0.00085 s⁻¹,,,,7.12e-05 ± 1.6e-05 s⁻¹
C67A C70A,,5e-05 ± 6.5e-06 s⁻¹,6.33e-05 ± 1e-05 s⁻¹,4.28e-05 ± 7.3e-06 s⁻¹,,4.23e-05 ± 1.8e-05 s⁻¹,
C67A C70U,,0.00153 ± 0.00062 s⁻¹,0.00129 ± 0.00019 s⁻¹,0.00206 ± 0.00033 s⁻¹,0.000211 ± 3.6e-05 s⁻¹,0.000461 ± 6.6e-05 s⁻¹,9.1e-05 ± 9.4e-06 s⁻¹
U65C U69G,,4.17e-05 ± 1.1e-05 s⁻¹,5.5e-05 ± 2.3e-05 s⁻¹,,,,
